Reference: IntAct's records for PubMed 29039417

B1: BBSome complex member BBS5 (Homo sapiens), Q8N3I7 (parent)
chain: MSVLDALWEDRDVRFDLSAQQMKTRPGEVLIDCLDSIEDTKGNNGDRGRLLVTNLRILWHSLALSRVNVSVGYNCILNITTRTANSKLRGQTEALYILTKCNSTRFEFIFTNLVPGSPRLFTSVMAVHRAYETSKMYRDFKLRSALIQNKQLRLLPQEHVYDKINGVWNLSSDQGNLGTFFITNVRIVWHANMNDSFNVSIPYLQIRSIKIRDSKFGLALVIESSQQSGGYVLGFKIDPVEKLQESVKEINSLHKVYSASPIFGVDYEMEEKPQPLEALTVEQIQDDVEIDSDGHTDAFVAYFADGNKQQDREPVFSEELGLAIEKLKDGFTLQGLWEVMS
partner: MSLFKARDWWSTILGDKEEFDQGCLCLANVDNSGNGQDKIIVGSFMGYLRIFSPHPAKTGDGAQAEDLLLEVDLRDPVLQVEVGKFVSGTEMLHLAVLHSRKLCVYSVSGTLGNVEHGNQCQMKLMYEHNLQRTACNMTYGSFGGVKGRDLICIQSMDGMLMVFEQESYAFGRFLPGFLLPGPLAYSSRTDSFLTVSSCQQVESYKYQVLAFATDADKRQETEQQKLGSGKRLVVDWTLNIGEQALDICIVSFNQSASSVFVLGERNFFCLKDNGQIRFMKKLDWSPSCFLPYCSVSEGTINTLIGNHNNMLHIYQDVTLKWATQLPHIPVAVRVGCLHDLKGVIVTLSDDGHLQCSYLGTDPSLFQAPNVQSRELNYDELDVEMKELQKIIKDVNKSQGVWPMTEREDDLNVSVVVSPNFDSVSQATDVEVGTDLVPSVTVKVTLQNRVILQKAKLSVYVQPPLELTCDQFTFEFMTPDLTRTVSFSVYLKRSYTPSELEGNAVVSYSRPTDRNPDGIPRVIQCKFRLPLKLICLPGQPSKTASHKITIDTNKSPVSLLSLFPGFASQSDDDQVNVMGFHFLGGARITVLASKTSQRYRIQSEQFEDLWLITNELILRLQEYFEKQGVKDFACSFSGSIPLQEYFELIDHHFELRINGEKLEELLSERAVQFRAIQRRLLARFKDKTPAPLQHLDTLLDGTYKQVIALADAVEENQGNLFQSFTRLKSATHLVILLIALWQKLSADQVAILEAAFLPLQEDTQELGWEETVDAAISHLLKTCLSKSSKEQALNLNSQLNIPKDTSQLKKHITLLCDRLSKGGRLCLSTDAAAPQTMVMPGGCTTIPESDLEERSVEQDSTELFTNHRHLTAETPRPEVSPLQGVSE

Variants of: B1
Details: with pthb1_human BBS9, Q3SYG4

Effect of a mutation on the interaction, disrupting interaction strength:
D238N
I222E
K236E
L233A
F235K
G217D
Y231A
R186K
R186E
Q227A
G229S
N184E
G234A

Effect of a mutation on the interaction, with no effect:
S214E
S214K
S214A
H190E
H190A
H190K
D238A
D238K
D238E
V232A
V232E
V232K
I222K
I222A
A219E
A219K
P239E
P239K
P239A
K236A
K210A
K210E
Q244K
Q244A
Q244E
N192A
N192K
N192E
R207E
R207A
R207K
N198E
N198A
N198K
K242E
K242A
Q205A
Q205K
Q205E
F216A
F216K
F216E
W189K
W189A
W189E
L233E
L233K
S196A
S196K
S196E
S208E
S208A
S208K
L218E
L218K
L218A
F235A
F235E
D213K
D213A
D213E
G217E
G217A
G217K
I206K
I206E
I206A
Y231K
Y231E
G230A
G230E
G230K
R186A
I187A
I187E
I187K
V185E
V185K
V185A
I201K
I201E
I201A
F197K
F197E
F197A
L204E
L204K
L204A
N194A
N194K
N194E
K215E
K215A
S246A
S246E
Q226E
Q226A
Q226K
V188E
V188K
V188A
Q227E
Q227K
V199K
V199E
V199A
G229E
G229A
G229K
E223K
E223A
D195K
D195E
D195A
I237A
I237E
I237K
R212A
R212E
R212K
E245K
E245A
E241A
E241K
V221K
V221A
V221E
Y203E
Y203K
Y203A
S224K
S224E
S224A
L220A
L220K
L220E
I209K
I209E
I209A
S200E
S200A
S200K
I211E
I211K
I211A
P202K
P202A
P202E
N184K
S228A
S228E
S228K
G234K
G234E
A191E
A191K
L243A
L243K
L243E
M193K
M193E
M193A
S225A
S225E
S225K
V240K
V240A
V240E
